Data on three substances can be found in paper PMC5460766.

A word on the Kd: it is the constant that tells how readily two partners part at equilibrium. A lower Kd goes with higher affinity.

Holding throughout (assay): ITC
A general note: Isothermal titration calorimetry measures the heat released or taken up as one component is titrated into another.

In assay [1] the target is NDD(MlnD)+MlnKR4 (Bacillus amyloliquefaciens FZB42) (UniProt A7Z473).
Assay [2] has as its target NDD(MlnG)+MlnKR9 (Bacillus amyloliquefaciens FZB42) (UniProt A7Z476).
For assay [3], the target named is NDD(MlnE)+MlnKR6 (Bacillus amyloliquefaciens FZB42) (UniProt A7Z474).

“MlnDH4+CDD(MlnC) (from UniProt A7Z472 1-1590) (domain or fragment)”: in assay [1], the Kd amounted to 1800 nM.
With “MlnDH9+CDD(MlnF) (from UniProt A7Z475 1-1903) (domain or fragment)”, the Kd in assay [2] was 9000 nM.
The substance “MlnKS6+CDD(MlnD) (from UniProt A7Z473 1-2902) (domain or fragment)” displayed a Kd in assay [3] of 800 nM.
